In a protein production outcome set (Wang et al. 2014):

Assay: label from the status in PepcDB records

**Q.** Which protein production does the source give for “MSLSLWQQCLARLQDELPATEFSMWIRPLQAELSDNTLALYAPNRFVLDWVRDKYLNNINVLLNDFCGMDAPLLRFEVGSKPLVQTISQPAQSHHNPVSVARQQPVRMAPVRPSWDNSPVQAEHTYRSNVNPKHTFDNFVEGKSNQLARAAARQVADNPGGAYNPLFLYGGTGLGKTHLLHAVGNGIIARKPNAKVVYMHSERFVQDMVKALQNNAIEEFKRYYRSVDALLIDDIQFFANKERSQEEFFHTFNALLEGNQQIILTSDRYPKEINGVEDRLKSRFGWGLTVAIEPPELETRVAILMKKADENDIRLPGEVAFFIAKRLRSNVRELEGALNRVIANANFTGRSITIDFVREALRDLLALQEKLVTIDNIQKTVAEYYKIKIADLLSKRRSRSVARPRQMAMALAKELTNHSLPEIGDAFGGRDHTTVLHACRKIEQLREESHDIKEDFSNLIRTLSSLEHHHHHH” here?
**A.** The protein production was “not failed”.

**Q.** For “MSLSNGELAILVFGYPETMANQVIAYFQEFGTILEDFEVLRKPQAMTVGLQDRQFVPIFSGNSWTKITYDNPASAVDALLENGAVFNGVLLGVIPYTKDAVERLQKRKLTSSEDIGSGITTAAAEGHHHHHH”, which protein production is on record?
**A.** The protein production was “not failed”.

**Q.** Which protein production does the source give for “MSLSNVFYRSSKPYPVAVRGEGVFLYDDAGRRYLDGSSGALVANIGHGRAEVGERMAAQAARLPFVHGSQFSSDVLEEYAGRLARFVGLPTFRFWAVSGGSEATESAVKLARQYHVERGEPGRFKVITRVPSYHGASLGSLAASGMGARRELYTPLMRPEAWPKLPKPDPARNGAEDAEGLRALLEREGPETVAAFMAEPVVGASDAALAPAPGYYERVRDICDEAGIIFIADEVMSGMGRCGSPLALSRWSGVTPDIAVLGKGLAAGYAPLAGLLAAPQVYETVMGGSGAFMHGFTYAGHPVSVAAGLSVLDIVEREDLTGAAKERGAQLLAGLQALQARFPQMMQVRGTGLLLGVVLGDLATGQAFETPGIASRIGAAALKRGLITYPGSGAEPNGRGDHLLLGPPLSITAAEVDGLLALLAGALEDVLGEGHHHHHH” here?
**A.** The protein production was “not failed”.

**Q.** With “MSLSPDLLLAFALFALVTSITPGPNNTMLLASGVNFGFNRSIPHILGISCGFFVLVLAVGLGLGAVFEAYPLLYSVLRYVGAVYLLYLAWKIARSGPLSDEQQHHGRPLGYWGAAAFQWVNPKAWVMAVGAISTYTPLQGYFTNVLVIAAVFALINAPTVSLWAACGSLLRNVLRNPRWLRLFNLLMAALLVLSLAPLLFEKMS” as the sequence, how does the protein production read?
**A.** Its protein production is “failed”.

**Q.** Which protein production does the source give for “MSLSPSARRVQGALETRGFGHLKVVELPASTRTAKEAAQAVGAEVGQIVKSLVFVGEKGAYLFLVSGKNRLDLGKATRLVGGPLRQATPEEVRELTGFAIGGVPPVGHNTPLPAYLDEDLLGYPEVWAAGGTPRALFRATPKELLALTGAQVADLKEG” here?
**A.** The protein production was “not failed”.

**Q.** With “MSLSRVTEIRYVGYGVKDFDAEKAFYADVWGLEPVGEDANNAWFKAQGADEHHVVQLRRADENRIDVIALAADSRSDVDALRASVEAAGCKVASEPAVLATPGGGYGFRFFSPDGLLFEVSSDVAKGAKRDLARWEGVPVKISHIVLHSPNHQDMVKFFTDVLGFKVSDWLGDFMCFLRCNSAHHRIAILPGPPCLNHVAYDMLSVDDMMRGAHRLKVKGIDIGWGPGRHTAGNNTFSYFVTPGGFVTEYTSELEEVDFDTHQYKVHVPAPMVMDQWGIGTGGPQTLPHPHANPGLFQTAEAEGHHHHHH” as the sequence, how does the protein production read?
**A.** The protein production was “not failed”.

**Q.** Which protein production does the source give for “MSLSSPNILLTRIDNRLVHGQVGVTWTSTIGANLLVVVDDVVANDDIQQKLMGITAETYGFGIRFFTIEKTINVIGKAAPHQKIFLICRTPQTVRKLVEGGIDLKDVNVGNMHFSEGKKQISSKVYVDDQDLTDLRFIKQRGVNVFIQDVPGDQKEQIPDEGHHHHHH” here?
**A.** The protein production was “not failed”.

**Q.** Which protein production does the source give for “MSLSTGATIVIDLGKTLSKVSLWDLDGRMLDRQVRPSIPLEIDGIRRLDAPDTGRWLLDVLSRYADHPVTTIVPVGHGAGIAALTDGRLAFPPLDYEQSIPEAVMADYRSQRDPFARTGSPALPDGLNIGSQLWWLDQLHPDVMANATLLPWAQYWAWFLTGRAVSEVTSLGCHSDLWDPQDGDFSPMAKRLGWAARFAPIVRAGDTVGALLPAIAERTGLSPDVQVLAGLHDSNAALLAARGFAEIADNEATVLSTGTWFIAMRLPATPVDTATLPEARDCLVNVDVHGRPVPSARFMGGREIETLIEIDTRRVDIKPDQPALLAAVPEVLRHGRMILPTLMRGFGPYPHGRFAWINRPEDWFERRAAACLYAALVADTALDLIGSTGRILVEGRFAEADVFVRALASLRPDCAVYTANAHNDVSFGALRLIDPGLRPQGELVRIEPLDTGSWADLDTYRNRWQAEVEAAKVEEGHHHHHH” here?
**A.** The protein production was “not failed”.

**Q.** For “MSLSTMLVAEDLSAVGGISLSSALPVLTAMQYDVAALPTSLLSTHTSGYGTPAVVDLSTWLPQVFAHWTRAQLHFDQALIGYVGSVALCQQITTYLEQQTLSLLVVDPVLGDLGQLYQGFDQDYVAAMRQLIQQADVILPNTTEAALLTGAPYQVTPDLEVILPALQAQLKTGAHAVITDVQRADQIGCAWLDEAGHVQYCGARRLPGHYNGTGDTLAAVIAGLLGRGYPLAPTLARANQWLNMAVAETIAQNRTDDRQGVALGDLLQAILALNEGHHHHHH”, which protein production is on record?
**A.** The protein production was “not failed”.

**Q.** For “MSLSYVLPTLTYSLAASTLGLLQAIPGAFTGFRHTDSDSARGLLLGIFILTVSALLTLAVSAVFWLASFTLFRVLSRYREYAADRGAVAITGDPAALASALATIDDEMAAAPDHDLRAQDGGLDALYIAPIDETQFKDAPDFVANDVFPQTHPPTEARIERLEAMATEGPT”, which protein production is on record?
**A.** The protein production was “failed”.

**Q.** With “MSLTASYETIKARLDGTVLSATFNAPPMNLIGPEVVRDLVALLEELAHPTAPRVVIFDSADADFFFPHVDMTKVPEYTAEAAKAGGPGDASLGMLFRKLSQLPAVTIAKLRGRARGAGSEFLLACDMRFASRENAILGQPEVGIGAPPGAGAIQHLTRLLGRGRALEAVLTSSDFDADLAERYGWVNRAVPDAELDEFVAGIAARMSGFPRDALIAAKSAINAISLPAPAEVRADAALFQQLVRGEKVQQRTAELFKQGFQTRGATELDLGDALGHLKAVDEGHHHHHH” as the sequence, how does the protein production read?
**A.** Its protein production is “not failed”.

**Q.** Which protein production does the source give for “MSLTGRAFAIPLRTRFRGITVREGMLVRGAAGWGEFSPFAEYGPRECARWWAACYEAAELGWPAPVRDTVPVNATVPAVGPEEAARIVASSGCTTAKVKVAERGQSEANDVARVEAVRDALGPRGRVRIDVNGAWDVDTAVRMIRLLDRFELEYVEQPCATVDELAEVRRRVSVPIAADESIRRAEDPLRVRDAEAADVVVLKVQPLGGVRAALRLAEECGLPVVVSSAVETSVGLAAGVALAAALPELPYACGLATLRLLHADVCDDPLLPVHGVLPVRRVDVSEQRLAEVEIDPAAWQARLAAARAAWEQVEREPGPEGHHHHHH” here?
**A.** The protein production was “not failed”.

**Q.** Which protein production does the source give for “MSLTIKNSLGQSHDYIKMFVKEGDTVVDATCGNGNDTAFLASLVGENGRVFGFDIQDKAIANTTKKLTDLNLIDRVTLIKDGHQNMDKYIDCPVKAVMFNLGYLPSGDHSISTRPETTIQALSKAMELLVTGGIITVVIYYGGDTGFEEKEKVLEFLKGVDQKKFIVQRTDFINQANCPPILVCIEKISEGHHHHHH” here?
**A.** The protein production was “not failed”.

**Q.** Which protein production does the source give for “MSLTINVGLLVDETGPTSDVGKGYSLGAELAFKYFNEKGIYTKDGVRVNINYIKRDYAYNPTTAEEYYREFRDRYGVIAIIGWGTADTEKLSDQVDTDKITYISASYSAKLLVKPFNFYPAPDYSTQACSGLAFLASEFGQGKLALAYDSKVAYSRSPIGAIKKAAPSLGLQVVGDYDLPLRATEADAERIAREMLAADPDYVWCGNTISSCSLLGRAMAKVGLDAFLLTNVWGFDERSPQLIGEGGYGKVFGISPFIYPMFGQDVEGIQTIFEAARMNGVSEDQINLRVVQGFVNVWLLIKAIESVTSQDLQERGGEALKEALEANTFDLGGITADTIDYEPGFHLAYRKVFIIKLGENGELQLMGKFEAPSQVDCARYTIEEGHHHHHH” here?
**A.** The protein production was “not failed”.

**Q.** Which protein production does the source give for “MSLTLYQKKSKMIGIIIPDLNNRFYAQIIDGIQEVIQKEGYTALISFSTNSDVKKYQNAIINFENNNVDGIITSAFTIPPNFHLNTPLVMYDSANINDDIVRIVSNNTKGGKESIKLLSKKIEKVLIQHWPLSLPTIRERIEAMTAEASKLKIDYLLEETPENNPYISAQSALNKSNQFDAIITVNDLYAAEIIKEAKRRNLKIPDDFQLVGYDNNILCGYTSPTISTIDQNPKLIGQTAAHRLLDLMSGNNSTRNSIIDVLPIKRDSTEGHHHHHH” here?
**A.** Its protein production is “not failed”.

**Q.** With “MSLTNTKTGFSVKDILDLPDTNDEEGSITGTEEDTEGSEATKTPGVLVQSPLENVQNLPLKNPFYDNSDNPYTRWLATTDSIQYSLHGLSANSQDTSAKSPEPSADESPDNDKETSSNGSDSGKKQKEGALFQGTNLRTRAPV” as the sequence, how does the protein production read?
**A.** Its protein production is “failed”.
